Patent publication US20260001928A1 (CORTERIA PHARMACEUTICALS, priority 2022, published 2026)
*1 amine or outer side, *2 acyl side, *3 side chain or, on linkers, in order; H or OH if unused. Where no end group is shown, it is not given here. Side-chain parts run from the residue outwards. [ ]: non-standard residue; d: D form. The star is where a group is joined. C18 diacid = O=C(O)CCCCCCCCCCCCCCCCC(=O)*; C16 diacid = O=C(O)CCCCCCCCCCCCCCC(=O)*; γGlu = O=C(O)[C@H](CCC(=O)[*:2])N[*:1]; NMeI = CC[C@H](C)[C@H](NC)C(=O)O; Api = NC1(C(=O)O)CCNCC1; AEEA = NCCOCCOCC(=O)O

T1: CRF1R receptor (UniProt P34998 24-415, limits assumed)
T1 sequence (looked up): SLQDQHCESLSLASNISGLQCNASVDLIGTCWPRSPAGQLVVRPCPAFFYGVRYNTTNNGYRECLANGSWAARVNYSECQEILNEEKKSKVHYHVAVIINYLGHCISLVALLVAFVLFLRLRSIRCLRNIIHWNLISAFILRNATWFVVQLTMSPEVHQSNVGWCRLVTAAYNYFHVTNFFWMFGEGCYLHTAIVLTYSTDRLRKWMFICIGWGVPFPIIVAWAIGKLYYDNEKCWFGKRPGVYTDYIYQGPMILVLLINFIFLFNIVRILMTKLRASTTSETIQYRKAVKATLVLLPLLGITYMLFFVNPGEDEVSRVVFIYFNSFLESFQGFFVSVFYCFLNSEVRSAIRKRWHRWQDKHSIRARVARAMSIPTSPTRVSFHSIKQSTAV

B1: SEQ ID NO 72 (peptide)
peptide: [NMeI]VLSLD[dV]PIKLK([γGlu-C16 diacid])KILLEQEKQKKQREQAETN[Api]QILAQV-NH2
modifications: N-terminus assumed
SMILES: CC[C@H](C)[C@H](NC)C(=O)N[C@H](C(=O)N[C@@H](CC(C)C)C(=O)N[C@@H](CO)C(=O)N[C@@H](CC(C)C)C(=O)N[C@@H](CC(=O)O)C(=O)N[C@@H](C(=O)N1CCC[C@H]1C(=O)N[C@H](C(=O)N[C@@H](CCCCN)C(=O)N[C@@H](CC(C)C)C(=O)N[C@@H](CCCCNC(=O)CC[C@H](NC(=O)CCCCCCCCCCCCCCC(=O)O)C(=O)O)C(=O)N[C@@H](CCCCN)C(=O)N[C@H](C(=O)N[C@@H](CC(C)C)C(=O)N[C@@H](CC(C)C)C(=O)N[C@@H](CCC(=O)O)C(=O)N[C@@H](CCC(N)=O)C(=O)N[C@@H](CCC(=O)O)C(=O)N[C@@H](CCCCN)C(=O)N[C@@H](CCC(N)=O)C(=O)N[C@@H](CCCCN)C(=O)N[C@@H](CCCCN)C(=O)N[C@@H](CCC(N)=O)C(=O)N[C@@H](CCCNC(=N)N)C(=O)N[C@@H](CCC(=O)O)C(=O)N[C@@H](CCC(N)=O)C(=O)N[C@@H](C)C(=O)N[C@@H](CCC(=O)O)C(=O)N[C@H](C(=O)N[C@@H](CC(N)=O)C(=O)NC1(C(=O)N[C@@H](CCC(N)=O)C(=O)N[C@H](C(=O)N[C@@H](CC(C)C)C(=O)N[C@@H](C)C(=O)N[C@@H](CCC(N)=O)C(=O)N[C@H](C(N)=O)C(C)C)[C@@H](C)CC)CCNCC1)[C@@H](C)O)[C@@H](C)CC)[C@@H](C)CC)C(C)C)C(C)C
B2: SEQ ID NO 149 (peptide)
peptide: IVLSLDVPIKLK([AEEA-AEEA-γGlu-C18 diacid])KILLEQEKQKKQREQAETNKQILAQV-NH2
modifications: not fully specified (residue 7); printed as IVLSLDVPIKLK*KILLEQEKQKKQREQAETNKQILAQV-NH2
B3: SEQ ID NO 116 (peptide)
peptide: [NMeI]VLSLD[dV]PIKLK([AEEA-AEEA-γGlu-C18 diacid])KILLEQEKQKKQREQAETNEQILAQV-NH2
modifications: N-terminus assumed
SMILES: CC[C@H](C)[C@H](NC)C(=O)N[C@H](C(=O)N[C@@H](CC(C)C)C(=O)N[C@@H](CO)C(=O)N[C@@H](CC(C)C)C(=O)N[C@@H](CC(=O)O)C(=O)N[C@@H](C(=O)N1CCC[C@H]1C(=O)N[C@H](C(=O)N[C@@H](CCCCN)C(=O)N[C@@H](CC(C)C)C(=O)N[C@@H](CCCCNC(=O)COCCOCCNC(=O)COCCOCCNC(=O)CC[C@H](NC(=O)CCCCCCCCCCCCCCCCC(=O)O)C(=O)O)C(=O)N[C@@H](CCCCN)C(=O)N[C@H](C(=O)N[C@@H](CC(C)C)C(=O)N[C@@H](CC(C)C)C(=O)N[C@@H](CCC(=O)O)C(=O)N[C@@H](CCC(N)=O)C(=O)N[C@@H](CCC(=O)O)C(=O)N[C@@H](CCCCN)C(=O)N[C@@H](CCC(N)=O)C(=O)N[C@@H](CCCCN)C(=O)N[C@@H](CCCCN)C(=O)N[C@@H](CCC(N)=O)C(=O)N[C@@H](CCCNC(=N)N)C(=O)N[C@@H](CCC(=O)O)C(=O)N[C@@H](CCC(N)=O)C(=O)N[C@@H](C)C(=O)N[C@@H](CCC(=O)O)C(=O)N[C@H](C(=O)N[C@@H](CC(N)=O)C(=O)N[C@@H](CCC(=O)O)C(=O)N[C@@H](CCC(N)=O)C(=O)N[C@H](C(=O)N[C@@H](CC(C)C)C(=O)N[C@@H](C)C(=O)N[C@@H](CCC(N)=O)C(=O)N[C@H](C(N)=O)C(C)C)[C@@H](C)CC)[C@@H](C)O)[C@@H](C)CC)[C@@H](C)CC)C(C)C)C(C)C
B4: SEQ ID NO 71 (peptide)
peptide: [NMeI]VLSLD[dV]PIKLK([γGlu-C16 diacid])KILLEQEKQKKQREQAETNEQILAQV-NH2
modifications: N-terminus assumed
SMILES: CC[C@H](C)[C@H](NC)C(=O)N[C@H](C(=O)N[C@@H](CC(C)C)C(=O)N[C@@H](CO)C(=O)N[C@@H](CC(C)C)C(=O)N[C@@H](CC(=O)O)C(=O)N[C@@H](C(=O)N1CCC[C@H]1C(=O)N[C@H](C(=O)N[C@@H](CCCCN)C(=O)N[C@@H](CC(C)C)C(=O)N[C@@H](CCCCNC(=O)CC[C@H](NC(=O)CCCCCCCCCCCCCCC(=O)O)C(=O)O)C(=O)N[C@@H](CCCCN)C(=O)N[C@H](C(=O)N[C@@H](CC(C)C)C(=O)N[C@@H](CC(C)C)C(=O)N[C@@H](CCC(=O)O)C(=O)N[C@@H](CCC(N)=O)C(=O)N[C@@H](CCC(=O)O)C(=O)N[C@@H](CCCCN)C(=O)N[C@@H](CCC(N)=O)C(=O)N[C@@H](CCCCN)C(=O)N[C@@H](CCCCN)C(=O)N[C@@H](CCC(N)=O)C(=O)N[C@@H](CCCNC(=N)N)C(=O)N[C@@H](CCC(=O)O)C(=O)N[C@@H](CCC(N)=O)C(=O)N[C@@H](C)C(=O)N[C@@H](CCC(=O)O)C(=O)N[C@H](C(=O)N[C@@H](CC(N)=O)C(=O)N[C@@H](CCC(=O)O)C(=O)N[C@@H](CCC(N)=O)C(=O)N[C@H](C(=O)N[C@@H](CC(C)C)C(=O)N[C@@H](C)C(=O)N[C@@H](CCC(N)=O)C(=O)N[C@H](C(N)=O)C(C)C)[C@@H](C)CC)[C@@H](C)O)[C@@H](C)CC)[C@@H](C)CC)C(C)C)C(C)C
B5: SEQ ID NO 151 (peptide)
peptide: H-IVLSLD[dV]PIKLK([γGlu-C16 diacid])QILLKQERQKKQREQAEKNKQILEQV-NH2
SMILES: CC[C@H](C)[C@H](N)C(=O)N[C@H](C(=O)N[C@@H](CC(C)C)C(=O)N[C@@H](CO)C(=O)N[C@@H](CC(C)C)C(=O)N[C@@H](CC(=O)O)C(=O)N[C@@H](C(=O)N1CCC[C@H]1C(=O)N[C@H](C(=O)N[C@@H](CCCCN)C(=O)N[C@@H](CC(C)C)C(=O)N[C@@H](CCCCNC(=O)CC[C@H](NC(=O)CCCCCCCCCCCCCCC(=O)O)C(=O)O)C(=O)N[C@@H](CCC(N)=O)C(=O)N[C@H](C(=O)N[C@@H](CC(C)C)C(=O)N[C@@H](CC(C)C)C(=O)N[C@@H](CCCCN)C(=O)N[C@@H](CCC(N)=O)C(=O)N[C@@H](CCC(=O)O)C(=O)N[C@@H](CCCNC(=N)N)C(=O)N[C@@H](CCC(N)=O)C(=O)N[C@@H](CCCCN)C(=O)N[C@@H](CCCCN)C(=O)N[C@@H](CCC(N)=O)C(=O)N[C@@H](CCCNC(=N)N)C(=O)N[C@@H](CCC(=O)O)C(=O)N[C@@H](CCC(N)=O)C(=O)N[C@@H](C)C(=O)N[C@@H](CCC(=O)O)C(=O)N[C@@H](CCCCN)C(=O)N[C@@H](CC(N)=O)C(=O)N[C@@H](CCCCN)C(=O)N[C@@H](CCC(N)=O)C(=O)N[C@H](C(=O)N[C@@H](CC(C)C)C(=O)N[C@@H](CCC(=O)O)C(=O)N[C@@H](CCC(N)=O)C(=O)N[C@H](C(N)=O)C(C)C)[C@@H](C)CC)[C@@H](C)CC)[C@@H](C)CC)C(C)C)C(C)C
B6: SEQ ID NO 147 (peptide)
peptide: H-IVLSLD[dV]PIKLK([γGlu-γGlu-C16 diacid])QILLKQERQKKQREQAEKNKQILEQV-NH2
SMILES: CC[C@H](C)[C@H](N)C(=O)N[C@H](C(=O)N[C@@H](CC(C)C)C(=O)N[C@@H](CO)C(=O)N[C@@H](CC(C)C)C(=O)N[C@@H](CC(=O)O)C(=O)N[C@@H](C(=O)N1CCC[C@H]1C(=O)N[C@H](C(=O)N[C@@H](CCCCN)C(=O)N[C@@H](CC(C)C)C(=O)N[C@@H](CCCCNC(=O)CC[C@H](NC(=O)CC[C@H](NC(=O)CCCCCCCCCCCCCCC(=O)O)C(=O)O)C(=O)O)C(=O)N[C@@H](CCC(N)=O)C(=O)N[C@H](C(=O)N[C@@H](CC(C)C)C(=O)N[C@@H](CC(C)C)C(=O)N[C@@H](CCCCN)C(=O)N[C@@H](CCC(N)=O)C(=O)N[C@@H](CCC(=O)O)C(=O)N[C@@H](CCCNC(=N)N)C(=O)N[C@@H](CCC(N)=O)C(=O)N[C@@H](CCCCN)C(=O)N[C@@H](CCCCN)C(=O)N[C@@H](CCC(N)=O)C(=O)N[C@@H](CCCNC(=N)N)C(=O)N[C@@H](CCC(=O)O)C(=O)N[C@@H](CCC(N)=O)C(=O)N[C@@H](C)C(=O)N[C@@H](CCC(=O)O)C(=O)N[C@@H](CCCCN)C(=O)N[C@@H](CC(N)=O)C(=O)N[C@@H](CCCCN)C(=O)N[C@@H](CCC(N)=O)C(=O)N[C@H](C(=O)N[C@@H](CC(C)C)C(=O)N[C@@H](CCC(=O)O)C(=O)N[C@@H](CCC(N)=O)C(=O)N[C@H](C(N)=O)C(C)C)[C@@H](C)CC)[C@@H](C)CC)[C@@H](C)CC)C(C)C)C(C)C
B7: SEQ ID NO 34 (peptide)
peptide: H-VLSLD[dV]PIKLK([γGlu-C16 diacid])KILLEQEKQKKQREQAETNKQILAQV-NH2
SMILES: CC[C@H](C)[C@H](NC(=O)[C@H](CCC(N)=O)NC(=O)[C@H](CCCCN)NC(=O)[C@H](CC(N)=O)NC(=O)[C@@H](NC(=O)[C@H](CCC(=O)O)NC(=O)[C@H](C)NC(=O)[C@H](CCC(N)=O)NC(=O)[C@H](CCC(=O)O)NC(=O)[C@H](CCCNC(=N)N)NC(=O)[C@H](CCC(N)=O)NC(=O)[C@H](CCCCN)NC(=O)[C@H](CCCCN)NC(=O)[C@H](CCC(N)=O)NC(=O)[C@H](CCCCN)NC(=O)[C@H](CCC(=O)O)NC(=O)[C@H](CCC(N)=O)NC(=O)[C@H](CCC(=O)O)NC(=O)[C@H](CC(C)C)NC(=O)[C@H](CC(C)C)NC(=O)[C@@H](NC(=O)[C@H](CCCCN)NC(=O)[C@H](CCCCNC(=O)CC[C@H](NC(=O)CCCCCCCCCCCCCCC(=O)O)C(=O)O)NC(=O)[C@H](CC(C)C)NC(=O)[C@H](CCCCN)NC(=O)[C@@H](NC(=O)[C@@H]1CCCN1C(=O)[C@H](NC(=O)[C@H](CC(=O)O)NC(=O)[C@H](CC(C)C)NC(=O)[C@H](CO)NC(=O)[C@H](CC(C)C)NC(=O)[C@@H](N)C(C)C)C(C)C)[C@@H](C)CC)[C@@H](C)CC)[C@@H](C)O)C(=O)N[C@@H](CC(C)C)C(=O)N[C@@H](C)C(=O)N[C@@H](CCC(N)=O)C(=O)N[C@H](C(N)=O)C(C)C

Biological target: T1, CRF1R receptor
Assay: cell-based or functional assay

Row | Emax (% I) | EC50 | Binder
1 | 18% | – | B1
2 | 4% | > 250000 pM | B2
3 | 0% | – | B3
4 | -4% | – | B4

Biological target: human corticotropin-releasing factor 2a (CRF2a receptor) (human), Q13324
Assay: cell-based or functional assay

human corticotropin-releasing factor 2a (CRF2a receptor) (human), Q13324, sequence (Q13324 20-411): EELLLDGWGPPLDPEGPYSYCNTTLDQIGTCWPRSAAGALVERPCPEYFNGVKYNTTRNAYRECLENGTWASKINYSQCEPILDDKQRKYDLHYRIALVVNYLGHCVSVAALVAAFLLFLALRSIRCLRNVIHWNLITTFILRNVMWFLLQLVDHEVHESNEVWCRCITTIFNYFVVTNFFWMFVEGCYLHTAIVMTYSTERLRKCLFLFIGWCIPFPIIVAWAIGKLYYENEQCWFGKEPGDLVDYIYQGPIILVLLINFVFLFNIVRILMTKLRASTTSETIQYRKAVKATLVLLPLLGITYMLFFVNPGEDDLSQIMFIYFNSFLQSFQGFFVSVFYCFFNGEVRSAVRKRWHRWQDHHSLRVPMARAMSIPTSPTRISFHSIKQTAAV

Row | EC50 [nM] (cAMP) | Binder
5 | 0.14 nM | B1
6 | 0.12 nM | B5
7 | 0.18 nM | B6
8 | 0.44 nM | B2
9 | 0.37 nM | B3
10 | 0.21 nM | B4
11 | 1.61 nM | B7
